Test results published in patent US20210221894A1 (DRAGONFLY THERAPEUTICS, published 2021).

Columns and labels:
[1] = target: T1, extracellular domain (ECD) of human DLL3 (AdipoGen Life Sciences) (human, UniProt Q9NYJ7 27-492); assay: SPR (Biacore 8K), 37 C, antibody captured on anti-mouse Fc; same values as in Table 36
T1 construct: Bought and further purified by size exclusion chromatography; also called hDLL3 ECD; DLL3 ECD
T1 sequence: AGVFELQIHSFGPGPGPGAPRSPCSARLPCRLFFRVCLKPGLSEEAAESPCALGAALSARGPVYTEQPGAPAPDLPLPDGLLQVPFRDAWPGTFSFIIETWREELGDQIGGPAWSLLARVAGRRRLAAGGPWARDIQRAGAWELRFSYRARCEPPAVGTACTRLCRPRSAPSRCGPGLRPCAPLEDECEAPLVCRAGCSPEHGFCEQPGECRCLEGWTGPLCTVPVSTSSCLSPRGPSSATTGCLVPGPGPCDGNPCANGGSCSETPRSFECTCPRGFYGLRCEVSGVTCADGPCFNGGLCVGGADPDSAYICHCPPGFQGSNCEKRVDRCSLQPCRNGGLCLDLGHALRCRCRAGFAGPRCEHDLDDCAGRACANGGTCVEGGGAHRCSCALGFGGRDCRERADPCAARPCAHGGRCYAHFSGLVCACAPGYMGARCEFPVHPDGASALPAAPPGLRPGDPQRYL
Description: (§1) The binding kinetics of different anti-DLL3 antibodies to recombinant proteins of different domains of human DLL3 were studied by surface plasmon resonance (SPR) using a Biacore™ 8K instrument. These anti-DLL3 antibodies were produced from mouse hybridomas, and each included a heavy chain variable region and light chain variable region described herein. Briefly, antibodies recognizing human IgG Fc and antibodies recognizing mouse IgG Fc were immobilized on different channels of a Biacore™ 8K chip to allow simultaneous analysis of human and murine anti-DLL3 antibodies. Murine anti-DLL3 antibodies were captured on the anti-mouse Fc channel of the Biacore chip. The human anti-DLL3 antibody from Stemcentrx (San Francisco, Calif.) was used as a control and was captured onto anti-human Fc channel of the Biacore™ chip. Different concentrations of DLL3 ECD, DLL3 N-terminal domain, EGF2-6, EGF3-6, EGF4-6, or EGF5-6 domains of DLL3 were injected. Experiments were performed at 37° C. Biacore™ 8K evaluation software was used for all data analysis. To obtain kinetic rate constants double-referenced data were fit to a 1:1 interaction model using Biacore™ 8K Evaluation software (GE Healthcare, Marlborough, Mass.). The equilibrium binding constant KD was determined by the ratio of binding rate constants kd/kₐ.
(§2) Table 36 lists the calculated binding kinetics (KD). […]

[2] = target: T1, extracellular domain (ECD) of human …; assay: SPR (Biacore 8K), 37 C, antibody captured on anti-mouse Fc; same values as in Table 36; 37 C; hDLL3 ECD construct
Description: as §1, §2

human DLL3-His = target: T2, human DLL3-His (human, UniProt Q9NYJ7 27-492); assay: SPR (Biacore 8K), 37 C, m5E7 captured on anti-mouse Fc, DLL3-His 0.411-300 nM injected, 1:1 fit
T2 construct: also called hDLL3
T2 sequence: T1 sequence
Description: The kinetics of binding of different humanized variants and parental murine 5E7 antibody to human DLL3-His was studied by Surface Plasmon Resonance using a Biacore 8K instrument. Briefly, anti-hFc and anti-mFc IgG proteins were covalently immobilized onto different channels of CMS chip to allow simultaneous analysis of human and murine antibodies. m5E7 was captured on the anti-mouse Fc channel and humanized variants were captured on the anti-human Fc channel at a desired capture level of […] in HBS-EP+ buffer supplemented with 0.1% BSA. Three buffer blanks and human DLL3-His (analyte) at concentrations 0.411-300 nM (in three fold dilutions) were injected over the surface with captured murine or humanized 5E7 for 300 second association time and let dissociate for 600 second at a flow rate of 30 μL/min. The surfaces were subjected to regeneration with three 20-second pulses of 10 mM glycine pH 1.70 at a flow rate of 100 μL/min between every concentration of analyte. The experiment was conducted at 37° C. Data were double referenced and a 1:1 fit model was applied to the sensorgrams in the Biacore Insight Evaluation software.
The kinetic parameters of human DLL3-His binding to murine and humanized variants of 5E7 antibody variants were calculated and shown in Table 39.

[3] = target: T3, recombinant His-tagged N-terminal domain of human DLL3 (human, UniProt Q9NYJ7 27-175, limits assumed); assay: SPR (Biacore 8K), 37 C, antibody captured on anti-mouse Fc
T3 construct: also called DLL3 N-terminal domain
T3 sequence: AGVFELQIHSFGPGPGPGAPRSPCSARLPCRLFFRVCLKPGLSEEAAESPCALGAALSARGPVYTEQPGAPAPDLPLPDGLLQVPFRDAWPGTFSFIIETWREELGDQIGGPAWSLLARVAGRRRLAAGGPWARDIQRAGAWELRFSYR
Description: as §1, with “kd/kₐ. […]” for “kd/kₐ.”

[4] = target: T4, recombinant His-tagged EGF5-6 domains of human DLL3 (human, UniProt Q9NYJ7 391-492, limits assumed); assay: as above
T4 sequence: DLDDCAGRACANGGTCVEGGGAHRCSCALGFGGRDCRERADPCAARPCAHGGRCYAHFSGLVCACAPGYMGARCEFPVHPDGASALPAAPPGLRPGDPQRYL
Description: as §1, with “kd/kₐ. […]” for “kd/kₐ.”

[5] = target: T1, extracellular domain (ECD) of human …; assay: SPR (Biacore 8K), 37 C, antibody captured on anti-mouse Fc, DLL3 ECD injected, 1:1 fit
Description: as §1
Table 36 lists the calculated binding kinetics (KD). […] Stemcentrx anti-DLL3 antibody was used as a control.

B1: murine anti-DLL3 antibody clone 5E7 (antibody, V domains shown)
VH: EVQLQQSGAELVRPGASVKLSCTASGFNIKDDYIHWVKQWPEQGLEWIGWIDSENGDTEYASKFQGKATMTADTSSNTAYLQLSGLTSEDTAVYYCTTSSYYSYDLFVYWGQGTLVTVSA
VL: DVLMTQTPLTLSVPIGQPASISCKSSQSLLHSNGKTYLNWLLQRPGQSPKLLIYLVSKLESGVPDRFSGSGSGTDFTLKISRVEAEDLGVYYCLQTTHLYTFGGGTKLEIK
notes: Murine antibody produced from a mouse hybridoma, captured on anti-mouse Fc in SPR; also called m5E7; murine 5E7
Kd [1]: 0.203 nM | koff [1]: 6.47e-05 s⁻¹ | kon [2]: 319000 M⁻¹ s⁻¹ | Kd (human DLL3-His): 1.22 nM | koff (human DLL3-His): 0.00145 s⁻¹ | kon (human DLL3-His): 1.19e+06 M⁻¹ s⁻¹ | binding result [3]: no binding | binding result [4]: no binding | Kd [5]: 0.203 nM | koff [5]: 6.47e-05 s⁻¹ | kon [5]: 319000 M⁻¹ s⁻¹
